Assay: yeast display, Sf9 membrane polyspecificity reagent, FACS + sequencing; frameworks hold sequencing errors
Method in brief: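 Galactose induction of a Saccharomyces cerevisiae BJ5465 synthetic nanobody display library ran 36–48 hours. The cells were then stained for 1 hour at 4 °C with 10% biotinylated, detergent-solubilized Sf9 membrane reagent, pulled down on streptavidin microbeads and FACS-sorted into low and high (top ~1%) gates on expression and reagent-binding fluorescence. Labels for polyreactivity follow the gate of origin.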

Sequence | polyreactivity (PSR sort gate)
QVHLVESGGGLVQAGGSLRLSCAASGSILLRYAMGWYRQAPGKERELVAAIRTIGASTYYADSVKGRFTISRDNAKNTVYLQMNSLKPEDTAVYYCNAYLAEVLPLGKGRLYDYWGLGTQVTVSS | low polyreactivity
QVHLVESGGGLVQAGGSLRLSCAASGSIYHNAMGWYRQAPGKERELVAAITSSGGRTYYADSVKGRFTISRDNAKNTVYLQMNSLKPEDTAVYYCNALAHQYHRYEFGYWGQGTQVTVSS | low polyreactivity
QVHLVESGGGLVQAGGSLRLSCAASGSNFRSYAMGWYRQAPWKERELDAAISSSGGRTYYADSVKGRFTISRDNAKNTVYLQMNSVKPEDNAVYYCAAYRGGGYKYDYWGQGTQVTVSS | high polyreactivity
QVHLVESGGGLVQAGGSLRLSCAASGSTFAVYAMGWYRQAPWKESELVAGISSRGGRTYYADSVKGRFTISRDNAKNTVYLQMNSLKPEDTAVYYCNVVYTYWRYYRWREYDYWGQGTQVTVSS | high polyreactivity
QVHLVESGGGLVQAGGSLRLSCAASGSTFAYNAMGWYRTAPGKERELVAAISSSGGRTYYADSVKGRFTLSRDNAKNTVYLQMISLKPEDTAVYYCNAAYYYTYGYWGQGTEVTVSS | high polyreactivity
QVHLVESGGGLVQAGGSLRLSCAASGSTFFYAMGWYRQAPRKERELVAAISWIDSLTYYADSVKGRFTISRDNEKITVYLQMNILKAEDTAFYYCAAEGQNEGYDYWGQGSQVTVSS | high polyreactivity
QVHLVESGGGLVQAGGSLRLSCAASGSTFGSNAMGWYRQAPGKERELVAAITNGGSTNYADSVKGRFTISRDNAKNTVYLQMNSLKPDDTAVYYCNGDPQQSKLWTYFFGFPGYYWGQGTQVTVSS | low polyreactivity
QVHLVESGGGLVQAGGSLRLSCAASGSTFILNAMGWYRQAPGKERELVATISSSDTSTYYADSVKGRFTISRDNAKNTVYLQMNSLKPEDTAVYYCNADYYTTSYLQRVYHYGVEYDYWGQGTQVTVSS | low polyreactivity
QVHLVESGGGLVQAGGSLRLSCAASGSTFISYAMGWYRQAPGKERELVAAISRNGGRTYYADSVKGRFTISRDNAKNTVYLQMNSLKPEDTAVYYCAAAYNSYRFDYWGQGTQVTVSS | high polyreactivity
QVHLVESGGGLVQAGGSLRLSCAASGSTFKPYTMGWYRQAPGKERELVAAITSRGTSTYYADSVKGRFKISRDNAKNTVYLQMNSLKPEDTEVYYCAARRPGTFSYGYWGQGTQVTVSS | high polyreactivity
QVHLVESGGGLVQAGGSLRLSCAASGSTFKRYAMGWYRQAPGKERELVASISQRGGTTYYADSVKGRFTISRDNAKNTVYLQMNSLKPEDTAVYYCANGFGWTRTIYDYWGQGTQVTVSS | high polyreactivity
QVHLVESGGGLVQAGGSLRLSCAASGSTFPANAMGRYRQAPGKERELVAAITSGGSTNYADSVKGRFTISRDNAKNTVYLQMNSLKPEDTAVYYCADESYQAHSFYVYYGYDYWGQGTQVTVSS | low polyreactivity
QVHLVESGGGLVQAGGSLRLSCAASGSTFPYYDMGWYRQAPGKERELVAAITYNGGNTYYADSVKGRFTISRDNAKNTVYLQMNSLKPEDTAVYYCAADGTLARLYYWATGDEDGYWGQGTQVTVSS | low polyreactivity
QVHLVESGGGLVQAGGSLRLSCAASGSTFQSNAMGWYRQAPGKERELVATITQSGATTYYADSVKGRFTISRDNAKNTVYLQMNSLKPEDTAVYYCNVDTYQKRWFWLDLDGGYWGQGTQVTVSS | low polyreactivity
QVHLVESGGGLVQAGGSLRLSCAASGSTFQTNAMGWSRQAPGKERELVAAISRTGGRSNYADSVKGRFTISRDNAKNTVYLQMHSLKPEDTAVYDCAAGVPKTGQAGYDYWGQGTQVTVSS | high polyreactivity
QVHLVESGGGLVQAGGSLRLSCAASGSTFRYYAMGWYRQAPGKERELVAAIRDSGGSTYYADSVKGRFTISRDNAKNTVYLQMNSLKPEDTAVYYCARRAYRWYSAYDSWGQGTQVTVSS | high polyreactivity
QVHLVESGGGLVQAGGSLRLSCAASGSTFSGYTMGWYRQAPGKEREFVAAISSRGGSTYYADSVKGRFTISRDNAKNSVYLQMNSVNPEDTAVYYCAAKVWARVDGRQFRLEYWGQGTQVTVSS | high polyreactivity
QVHLVESGGGLVQAGGSLRLSCAASGSTFVGNAMGWNRKAPGKERELVATISNSGGRTYYADSVKGPFTISRDNAKNTVYLEMNSLKPEDTAVYYCAADHPAFGPVYSFDYWGQGTQVTVSS | low polyreactivity
QVHLVESGGGLVQAGGSLRLSCAASGSTFVTYTMGWYRQAPGKERELVATITASGGSTYYADSVKGRFTISRDNEKNTVYLQMNSLKPEYTAVYYCAKRRSPVERYDFWGQGTQVTVSS | low polyreactivity
QVHLVESGGGLVQAGGSLRLSCAASGSTFYLYAMGWYRQATGKERELDASISRSGITTYSDSVKGRFTITRDNAKNNVYLQLNSRNPEDTADYYCAVRYYSASYWYGYDYWGLGTQVTVSS | high polyreactivity
QVHLVESGGGLVQAGGSLRLSCAASGSTFYNNAMGLYRQAPGKERELVASISLSAGSTYYADSVKGRFTISRDNAKNTVYLQMNSMKPEDTAVYYCAAESVAILVLVYPKGYGYWGQGTQVTVSS | low polyreactivity
QVHLVESGGGLVQAGGSLRLSCAASGSTIVDYHMAWYRQAPGKERELVASISSSGGSTYYADSVKGRFTISRDNAKNTVYLQMNSLKPEDTAVYYCAADTWGFWYWGPLFSKYGYWGQGTQVTVSS | low polyreactivity

Sequence | polyreactivity (PSR sort gate)
QVHLVESGGGLVQAGGSLRLSCAASGSTLVIYAMGWYRQAPGKERELVAVITWSGGSTYYADSVKGRFTISRDNAKNTVYLQMNSLKPEDTAVYYCAKRPIVRQRSYYYWGQGTQVTVSS | low polyreactivity
QVHLVESGGGLVQAGGSLRLSCAASGSTLVYNDMGWYRQAPGKEREFVAAIRSNDGSTYYADSVKGRFTISRDNAKNTVYLQMNSLKPEDTAVYYCAAERGYPKFGYWGQGTQVTVSS | low polyreactivity
QVHLVESGGGLVQAGGSLRLSCAASGSTLYRYAMGWYRQAPGKERELVATITRSGGSTYYADSVKGRFTISRDNAKNTVYLQINSLKPEDTAVYYCDAYRKVGGFSRGDYWGQGTKVTVSS | high polyreactivity
QVHLVESGGGLVQAGGSLRLSCAASGSTSDNTMGWYRQAPGKERELVAAISQRGVSTYYADSVKGRFTISRDNAKNTVYLQMNSLKPEDTAVYYCNALLSAKFDYWGQGTQVTVSS | low polyreactivity
QVHLVESGGGLVQAGGSLRLSCAASGYIFGYYAMGWYRQAPGKERELVAAISQGGGDTYYADSVKGRFTISRDNAKYTVYLQMNSLKPEDTAVYYCAADYEQSYVLTGTFKYDYWGQGTQVTVSS | low polyreactivity
QVHLVESGGGLVQAGGSLRLSCAASGYIFRWYAMGWYRQAPGKEREFVASISKRGGSTYYADSVKGRFTISRDNAKNTVYLQMNSLKPEDTAVYYCARTPSPLLYSYDYWGQGTQVTVSS | high polyreactivity
QVHLVESGGGLVQAGGSLRLSCAASGYIFTIYAMGWYRQAPGKERELVAAITSGGSTSYADSVKGRFTISRDNAKNTVYLQMNSLKPVDTAVYYCAAASVYAGLYYLWVYTGYDYWGQGTQVTVSS | high polyreactivity
QVHLVESGGGLVQAGGSLRLSCAASGYIFYAIAMGWYRQAPGKERELVAAISTGGNTNYADSVKGRFTISRDNAKNTVYVQMNSLKPEDTAVYYCAVRSTGPYRWRTPVTRDYWGQGTQVTVSS | low polyreactivity
QVHLVESGGGLVQAGGSLRLSCAASVRTYRGNAMGWYRQAPGKEREMVAAITYRTGSTYYADSVKGRFTISRDNAKNTVYLLMNSLKPEDTAVYYCAAVSGRSYDKYYYWGQGTQVTVSS | high polyreactivity
QVHLVESGGGLVQAGGSLRLSCAATGRTLTCNARGWYRQAPGKERELVPAISRSGGGSTYYADSVKGRFTISRDTAKNTVYIQMISLKPEDTAVYYCAARYRVHYYWYPMGYWGQGTQVTVSS | high polyreactivity
QVHLVESGGGLVQAGGSLRLSCAAYGIIFNSNAMGWYRQAPGKERELVAAISVSGGSTYYADSVKGRFTISRDNAKNTVYLQMNSLKPEDTAVYFCAARTGRGDRTRRYYYWGQGTKVTVSS | high polyreactivity
QVHLVESGGGLVQAGGSLRLSCAAYGRNFQYNAMGWDRQAPGKEREFVASISGSGGRTYYADSVKGRFTISRDNAKNTVYLQMNSLKPEDTAVYYCNASLLFPLLYGPESGEFDYWGQGSQVTVSS | low polyreactivity
QVHLVESGGGLVQAGGSLRLSCAAYGSTFTWYARGWYRQAPGKERELVADISYGGGSTYYADSVKGRFTISRDNAKNTVYLQMNSLKPEDTAVYYCAAESIPYYRYDYWGQGSQVTVSS | low polyreactivity
QVHLVESGGGLVQAGGSLRLSCADSGSTFKNYAMGWYRPAPGKERELVATITKRGGSTYYADSVKGRFTISRDNAKNTVYLQMKSMKPEDTAVYYCAAAPNGPRYRDRFDYWGQGNQVTVSS | high polyreactivity
QVHLVESGGGLVQAGGSLRLSCAPSGSIFRNYAMGWYRQAPGKESELVATISGRGGRTYYEDSVKGRFTISRDNAKNTVYLQMNSLKPEDTAVYYCAARGTLGKYSTASVYSGQGTQVTVSS | high polyreactivity
QVHLVESGGGLVQAGGSLRLSCASSGTTFRYYAMGCYRQAPGKERELVAAITYRGGRTYYADSVKGRFTISRDNPKNTVYLQMNSLKPEDTAVYYCAGKSGGDSMDSWGQGTQVTVSS | low polyreactivity
QVHLVESGGGLVQAGGSLRLSCDASGLTFANNAMGWYRQAPGKEREFVAAIRGSGGSTYYADSVKGRFTISRDNAKNTVYLQMNSLKPEDTAVYYCNAGYLRKYHGWFQVKFDYWGQGTQVTVSS | low polyreactivity
QVHLVESGGGLVQAGGSLRLSCDASGSTFGYYAMGWYRQAPGKERELVAAISWNGVSTYYADSVKGRFTISRDNAKNTVYLQMNCLKPEDTAVYYCATVGLRRLFVNPGTLMDYWGEGTQVTVSS | low polyreactivity
QVHLVESGGGLVQAGGSLRLSCPASGRTLDSNAMGWYRQAPGKERELVAAISSAGSTNYADSVKGRFTISRDNAKNTVYLQMNSLKPEDTAVYYCAADLIGSHDYWGQGTQVTVSS | low polyreactivity
QVHLVESGGGLVQAGGSLRLSCYASGRIFRYYAMGWYRQPPGKERELVAVINCSGGSTYYAVSVKGRFTISRDNAKNSVYLQMNSLKPEDTAVYYCYVYSVYPQFNYWGQGTQVTVSS | high polyreactivity
QVHLVESGGGLVQAGGSLRLSGAASGFTFYRYAMGWSRQAPGKERELVAAITSGAITYYADSVKGRFTISRDNAKNTVYLQMNSLKPEETAVYYCNAVYRVAAIVRYDYWGQGTQVTVSS | high polyreactivity

— the nanobody polyreactivity screen of Harvey et al. (2022)
